According to article PMC9279154 (Nature, 2022):

B1: His-tagged Loqs-PD, wild type [Drosophila melanogaster] / Drosophila melanogaster Dicer-2 (Dcr-2), wild type [Drosophila melanogaster] (parent complex)
chain 1: MDQENFHGSSLPQQLQNLHIQPQQASPNPVQTGFAPRRHYNNLVGLGNGNAVSGSPVKGAPLGQRHVKLKKEKISAQVAQLSQPGQLQLSDVGDPALAGGSGLQGGVGLMGVILPSDEALKFVSETDANGLAMKTPVSILQELLSRRGITPGYELVQIEGAIHEPTFRFRVSFKDKDTPFTAMGAGRSKKEAKHAAARALIDKLIGAQLPESPSSSAGPSVTGLTVAGSGGDGNANATGGGDASDKTVGNPIGWLQEMCMQRRWPPPSYETETEVGLPHERLFTIACSILNYREMGKGKSKKIAKRLAAHRMWMRLQETPIDSGKISDSICGELEGEVSIIQDIDRYEQVSKDFEFIKI
chain 2: MEDVEIKPRGYQLRLVDHLTKSNGIVYLPTGSGKTFVAILVLKRFSQDFDKPIESGGKRALFMCNTVELARQQAMAVRRCTNFKVGFYVGEQGVDDWTRGMWSDEIKKNQVLVGTAQVFLDMVTQTYVALSSLSVVIIDECHHGTGHHPFREFMRLFTIANQTKLPRVVGLTGVLIKGNEITNVATKLKELEITYRGNIITVSDTKEMENVMLYATKPTEVMVSFPHQEQVLTVTRLISAEIEKFYVSLDLMNIGVQPIRRSKSLQCLRDPSKKSFVKQLFNDFLYQMKEYGIYAASIAIISLIVEFDIKRRQAETLSVKLMHRTALTLCEKIRHLLVQKLQDMTYDDDDDNVNTEEVIMNFSTPKVQRFLMSLKVSFADKDPKDICCLVFVERRYTCKCIYGLLLNYIQSTPELRNVLTPQFMVGRNNISPDFESVLERKWQKSAIQQFRDGNANLMICSSVLEEGIDVQACNHVFILDPVKTFNMYVQSKGRARTTEAKFVLFTADKEREKTIQQIYQYRKAHNDIAEYLKDRVLEKTEPELYEIKGHFQDDIDPFTNENGAVLLPNNALAILHRYCQTIPTDAFGFVIPWFHVLQEDERDRIFGVSAKGKHVISINMPVNCMLRDTIYSDPMDNVKTAKISAAFKACKVLYSLGELNERFVPKTLKERVASIADVHFEHWNKYGDSVTATVNKADKSKDRTYKTECPLEFYDALPRVGEICYAYEIFLEPQFESCEYTEHMYLNLQTPRNYAILLRNKLPRLAEMPLFSNQGKLHVRVANAPLEVIIQNSEQLELLHQFHGMVFRDILKIWHPFFVLDRRSKENSYLVVPLILGAGEQKCFDWELMTNFRRLPQSHGSNVQQREQQPAPRPEDFEGKIVTQWYANYDKPMLVTKVHRELTPLSYMEKNQQDKTYYEFTMSKYGNRIGDVVHKDKFMIEVRDLTEQLTFYVHNRGKFNAKSKAKMKVILIPELCFNFNFPGDLWLKLIFLPSILNRMYFLLHAEALRKRFNTYLNLHLLPFNGTDYMPRPLEIDYSLKRNVDPLGNVIPTEDIEEPKSLLEPMPTKSIEASVANLEITEFENPWQKYMEPVDLSRNLLSTYPVELDYYYHFSVGNVCEMNEMDFEDKEYWAKNQFHMPTGNIYGNRTPAKTNANVPALMPSKPTVRGKVKPLLILQKTVSKEHITPAEQGEFLAAITASSAADVFDMERLEILGDSFLKLSATLYLASKYSDWNEGTLTEVKSKLVSNRNLLFCLIDADIPKTLNTIQFTPRYTWLPPGISLPHNVLALWRENPEFAKIIGPHNLRDLALGDEESLVKGNCSDINYNRFVEGCRANGQSFYAGADFSSEVNFCVGLVTIPNKVIADTLEALLGVIVKNYGLQHAFKMLEYFKICRADIDKPLTQLLNLELGGKKMRANVNTTEIDGFLINHYYLEKNLGYTFKDRRYLLQALTHPSYPTNRITGSYQELEFIGDAILDFLISAYIFENNTKMNPGALTDLRSALVNNTTLACICVRHRLHFFILAENAKLSEIISKFVNFQESQGHRVTNYVRILLEEADVQPTPLDLDDELDMTELPHANKCISQEAEKGVPPKGEFNMSTNVDVPKALGDVLEALIAAVYLDCRDLQRTWEVIFNLFEPELQEFTRKVPINHIRQLVEHKHAKPVFSSPIVEGETVMVSCQFTCMEKTIKVYGFGSNKDQAKLSAAKHALQQLSKCDA

Variants of: B1
Assay: pull-down; parent: 1; read off a plot

Row | Variant | ratio to parent
1 | chain 1 MDQENFHGSSLPQQLQNLHIQPQQASPNPVQTGFAPRRHYNNLVGLGNGNAVSGSPVKGAPLGQRHVKLKKEKISAQVAQLSQPGQLQLSDVGDPALAGGSGLQGGVGLMGVILPSDEALKFVSETDANGLAMKTPVSILQELLSRRGITPGYELVQIEGAIHEPTFRFRVSFKDKDTPFTAMGAGRSKKEAKHAAARALIDKLIGAQLPESPSSSAGPSVTGLTVAGSGGDGNANATGGGDASDKTVGNPIGWLQEMCMQRRWPPPSYETETEVGLPHERLFTIACSILNYREMGKGKSKKIAKRLAAHRMWMRLQETPIDSGKISDSICGELEGEVSIIQDIDRAEQVSKDFEFIKI [chain 1 Y347A] | ~0.1
2 | chain 1 MDQENFHGSSLPQQLQNLHIQPQQASPNPVQTGFAPRRHYNNLVGLGNGNAVSGSPVKGAPLGQRHVKLKKEKISAQVAQLSQPGQLQLSDVGDPALAGGSGLQGGVGLMGVILPSDEALKFVSETDANGLAMKTPVSILQELLSRRGITPGYELVQIEGAIHEPTFRFRVSFKDKDTPFTAMGAGRSKKEAKHAAARALIDKLIGAQLPESPSSSAGPSVTGLTVAGSGGDGNANATGGGDASDKTVGNPIGWLQEMCMQRRWPPPSYETETEVGLPHERLFTIACSILNYREMGKGKSKKIAKRLAAHRMWMRLQETPIDSGKISDSICGELEGEVSIIQDIDRYEQVSKDFEFIKD [chain 1 I359D] | ~0.04
3 | chain 1 MDQENFHGSSLPQQLQNLHIQPQQASPNPVQTGFAPRRHYNNLVGLGNGNAVSGSPVKGAPLGQRHVKLKKEKISAQVAQLSQPGQLQLSDVGDPALAGGSGLQGGVGLMGVILPSDEALKFVSETDANGLAMKTPVSILQELLSRRGITPGYELVQIEGAIHEPTFRFRVSFKDKDTPFTAMGAGRSKKEAKHAAARALIDKLIGAQLPESPSSSAGPSVTGLTVAGSGGDGNANATGGGDASDKTVGNPIGWLQEMCMQRRWPPPSYETETEVGLPHERLFTIACSILNYREMGKGKSKKIAKRLAAHRMWMRLQETPIDSGKISDSICGELEGEVSIIQDIDRYEQVSKDFEDIKI [chain 1 F356D] | ~0.06
